Assay results from patent publication US6642040B2, “Human cGMP-stimulated cyclic nucleotide phosphodiesterase” (The Board of Regents of the University of Washington, priority 1991, dated 2003).

B1: cGS-PDE cDNA: expression product of bovine adrenal cortex cGS-PDE cDNA (SEQ ID NO: 39) (protein)
chain: MRRQPAASRDLFAQEPVPPGSGDGALQDALLSLGSVIDVAGLQQAVKEALSAVLPKVETVYTYLLDGESRLVCEEPPHELPQEGKVREAVISRKRLGCNGLGPSDLPGKPLARLVAPLAPDTQVLVIPLVDKEAGAVAAVILVHCGQLSDNEEWSLQAVEKHTLVALKRVQALQQRESSVAPEATQNPPEEAAGDQKGGVAYTNQDRKILQLCGELYDLDASSLQLKVLQYLQQETQASRCCLLLVSEDNLQLSCKVIGDKVLEEEISFPLTTGRLGQVVEDKKSIQLKDLTSEDMQQLQSMLGCEVQAMLCVPVISRATDQVVALACAFNKLGGDLFTDQDEHVIQHCFHYTSTVLTSTLAFQKEQKLKCECQALLQVAKNLFTHLDDVSVLLQEIITEARNLSNAEICSVFLLDQNELVAKVFDGGVVEDESYEIRIPADQGIAGHVATTGQILNIPDAYAHPLFYRGVDDSTGFRTRNILCFPIKNENQEVIGVAELVNKINGPWFSKFDEDLATAFSIYCGISIAHSLLYKKVNEAQYRSHLANEMMMYHMKVSDDEYTKLLHDGIQPVAAIDSNFASFTYTPRSLPEDDTSMAILSMLQDMNFINNYKIDCPTLARFCLMVKKGYRDPPYHNWMHAFSVSHFCYLLYKNLELTNYLEDMEIFALFISCMCHDLDHRGTNNSFQVASKSVLAALYSSEGSVMERHHFAQAIAILNTHGCNIFDHFSRKDYQRMLDLMRDIILATDLAHHLRIFKDLQKMAEVGYDRTNKQHHSLLLCLLMTSCDLSDQTKGWKTTRKIAELIYKEFFSQGDLEKAMGNRPMEMMDREKAYIPELQISFMEHIAMPIYKLLQDLFPKAAELYERVASNREHWTKVSHKFTIRGLPSNNSLDFLDEEYEVPDLDGARAPINGCCSLDAE
B2: pHcgs6n: yeast expression plasmid with coding region of human cGS-PDE (SEQ ID NO: 45) (protein)
chain: MGQACGHSILCRSQQYPAARPAEPRGQQVFLKPDEPPPPPQPCADSLQDALLSLGSVIDISGLQRAVKEALSAVLPRVETVYTYLLDGESQLVCEDPPHELPQEGKVREAIISQKRLGCNGLGFSDLPGKPLARLVAPLAPDTQVLVMPLADKEAGAVAAVILVHCGQLSDNEEWSLQAVEKHTLVALRRVQVLQQRGPREAPRAVQNPPEGTAEDQKGGAAYTDRDRKILQLCGELYDLDASSLQLKVLQYLQQETRASRCCLLLVSEDNLQLSCKVIGDKVLGEEVSFPLTGCLGQVVEDKKSIQLKDLTSEDVQQLQSMLGCELQAMLCVPVISRATDQVVALACAFNKLEGDLFTDEDEHVIQHCFHYTSTVLTSTLAFQKEQKLKCECQALLQVAKNLFTHLDDVSVLLQEIITEARNLSNAEICSVFLLDQNELVAKVFDGGVVDDESYEIRIPADQGIAGHVATTGQILNIPDAYAHPLFYRGVDDSTGFRTRNILCFPIKNENQEVIGVAELVNKINGPWFSKFDEDLATAFSIYCGISIAHSLLYKKVNEAQYRSHLANEMMMYHMKVSDDEYTKLLHDGIQPVAAIDSNFASFTYTPRSLPEDDTSMAILSMLQDMNFINNYKIDCPTLARFCLMVKKGYRDPPYHNWMHAFSVSHFCYLLYKNLELTNYLEDIEIFALFISCMCHDLDHRGTNNSFQVASKSVLAALYSSEGSVMERHHFAQAIAILNTHGCNIFDHFSRKDYQRMLDLMRDIILATDLAHHLRIFKDLQKMAEVGYDRNNKQHHRLLLCLLMTSCDLSDQTKGWKTTRKIAELIYKEFFSQGDLEKAMGNRPMEMMDREKAYIPELQISFMEHIAMPIYKLLQDLFPKAAELYERVASNREHWTKVSHKFTIRGLPSNNSLDFLDEEYEVPDLDGTRAPINGCCSLDAE

What was measured:
cGS-PDE activity = cGS-PDE activity of membrane and supernatant fractions of transfected COS-7 cells; format: biochemical, bovine; conditions: most of the activity in supernatant fractions
From the text: Transient expression of the CGS-PDE cDNA in COS-7 cells was accomplished as in Example I. A 4.2 kb fragment of p3CGS-5 was isolated using HindIII and NotI and was inserted into plasmid pCDM8, which had been digested with the same enzymes. The character of products produced in COS-7 cells transformed with the p3CGS-5/pCDM8 construct is discussed in Example V, infra.
For transient expression in COS-7 cells, a 3.8 kb fragment of pBBCGSPDE-7 was isolated using HindIII and NotI and inserted into plasmid pCDM8 which had been cut with HindIII and NotI restriction endonucleases. The recombinant pBBCGSPDE-7/CDM8 construct was used to transiently transfect COS-7 cells. The properties of the pBBCGSPDE-7/CDM8 construct and the p3CGS-5/CDM8 construct prepared in Example IV products were subsequently compared. Membrane and supernatant fractions were prepared from extracts of transfected COS-7 cells and assayed for cGS-PDE activity. […] However, a 10-fold greater percentage of total cGS-PDE activity was detected in membranes from COS-7 cell extracts transfected with the pBBCGSPDE-7/CDM8 construct than in membranes prepared from p3CGS-5/CDM8-transfected COS-7 cells.

cAMP hydrolysis = test: cGS-PDE activity of PPD-S49 cells transfected with cGS-PDE cDNA; format: biochemical, bovine; conditions: zinc-treated PPD S49 cells, pZEM 228 vector
From the text: A putative phosphodiesterase-deficient (PPD) strain of S49 cells [Bourne et al., J. Cell. Physiol., 85:611-620 (1975)] was transiently transfected with the cGS-PDE cDNA using the DEAE-dextran method. The cGS-PDE cDNA was ligated into the unique BamHI cloning site in a mammalian expression vector, designated pZEM 228, following a zinc-inducible metallothionine promoter and prior to an SV40 transcription termination sequence. The DNA was purified from large-scale plasmid preparations using Qiagen pack-500 columns as directed by the manufacturer. PPD-S49 cells were cultured in DMEM containing 10% heat-inactivated horse serum, 50 μg/ml penicillin G and 50 μg/ml streptomycin sulfate at 37° C. in a water-saturated 7% CO2 atmosphere. Prior to transfections, confluent 100 mm dishes of cells were replated at one-fifth of the original density and incubated for 24-36 h. In a typical transfection experiment, PPD-S49 cells (50-80% confluent) were washed with Tris-buffered-saline and approximately 2×10^7 cells were transfected with […] of DNA mixed with 400 μg of DEAE-dextran in one ml of TBS. […]
cGS PDE activity was determined by a previously described method using [^3H]cAMP as the substrate as in Martins et al., J. Biol. Chem., 257:1973-1979 (1982). […] The Bradford assay [Bradford, Anal. Biochem., 72:248-254 (1976)] was used to quantitate protein using BSA as the standard.

[1] = tested on: cyclic AMP and cyclic GMP hydrolysis; test: Phosphodiesterase assay of yeast cell extracts, second method of part D; format: biochemical, human; conditions: extracts of YKS45
Procedure: YKS45 transformed with plasmid pHcgs6n were grown in SC-leu medium to 1-2×10^7 cells/ml. The cells were harvested by centrifugation and the cell pellets were frozen. A frozen cell pellet, typically containing 10^10 cells, was mixed with lysis buffer (25 mM Tris HCl pH 8, 5 mM EDTA, 5 mM EGTA, 1 mM o-phenathroline, 0.5 mM AEBSF, 0.01 mg/mL pepstatin, 0.01 mg/mL leupeptin, 0.01 mg/mL aprotinin, 0.1% 2-mercaptoethanol) to bring the total volume to 2.5 ml. The mixture was thawed on ice and then added to an equal volume of glass beads. The cells were disrupted by cycles of vortexing and chilling on ice, then additional lysis buffer was mixed with the disrupted cells to bring the total lysis buffer added to 5 ml. The suspension was centrifuged for 5 min. at 12,000× g. The supernatant was removed and either assayed immediately or frozen rapidly in a dry ice ethanol bath and stored at −70° C.
Phosphodiesterase activity was assayed by mixing an aliquot of cell extract in (40 mM Tris-Cl pH 8.0, 1.mM EGTA, 0.01 mg/mL BSA) containing 5 mM MgCl2 and radioactive substrate, incubating at 30° C. for up to 30 min. and terminating the reaction with stop buffer (0.1 M ethanolamine pH 9.0, 0.5M ammonium sulfate, 10 mM EDTA, 0.05% SDS final concentration). […] The radioactive product was measured by scintillation counting.

yeast host strain YKS45 = test: Yeast heat shock phenotype complementation, strain YKS45; format: cell-based, S. cerevisiae; conditions: YKS45, 56° C. for 10, 20, 30 and 45 minutes
Procedure: The host cells used in these procedures were S. cerevisiae yeast strains 10DAB (ATCC accession No. 74049) and YKS45, both of which were pde^1- pde^2- resulting in a phenotype characterized by heat shock sensitivity, i.e., the inability of cells to survive exposure to elevated temperatures on the order of 55-56° C. In these complementation procedures, the inserted gene product was noted to conspicuously modify the heat shock phenotype.
In a like manner, plasmid pHcgs6n (Example VI) was transformed into yeast host strain YKS45 by lithium acetate transformation. Heat shock analysis was performed as above except that the plates were initially grown two days at 30° C. and the warmed plates were maintained at 56° C. for 10, 20, 30 and 45 minutes.

Row | Molecule | cGS-PDE activity in COS-7 cell extracts (cGS-PDE activity) | cGMP-enhanced cAMP phosphodiesterase activity (cAMP hydrolysis) | hydrolysis of cyclic AMP and cyclic GMP by cell extracts [1] | heat shock phenotype of transformed yeast (yeast host strain YKS45)
1 | B1 | produced cGS-PDE activities | expressed cGMP-enhanced CAMP phosphodiesterase activity | – | –
2 | B2 | – | – | hydrolyzed both cyclic AMP and cyclic GMP | resistant to thermal pulse
